According to PMC9392322, “Modulation of macrophage inflammatory function through selective inhibition of the epigenetic reader protein SP140” (BMC Biology, 2022):
One block for each molecule: values may come before it. Ends that are not written are not given here. Me3 = trimethyl (trimethyl-lysine)

Tests used:
SP140 = target: T1, SP140 (Homo sapiens, UniProt Q13342); assay: fluorescence polarization competition against GSK064; assay type: binding
T1 construct: 6HisFLAGTEVSP140 (687-867), PHD-Brd

[1] = target: T2, 6His-Flag-Tev-SP140-PHD-Brd (687-867) (human, UniProt Q13342 687-867); assay: peptide or protein array; Active Motif modified histone peptide array, peptides on the slide; blocked with 3% BSA; 10 mg/mL 6His-Flag-Tev-SP140-PHD-Brd (687-867) in solution; detected with anti-6His antibody and anti-rabbit IgG HRP; in duplicate; conditions: both partners purified
T2 construct: SP140 (Speckled 140 kDa), construct spanning the PHD and Brd domains, aa 687-867; also called SP140 (aa 687-867); source: recombinant protein; not shown: His6, N-terminal, kept; FLAG, N-terminal, kept

[2] = target: T2, 6His-Flag-Tev-SP140-PHD-Brd (687-867); assay: fluorescence polarisation; competition: H3 peptides serially diluted, displacing 10 nM GSK306 (FAM-labelled GSK761) from 80 nM 6His…140 (687-867); 50 mM HEPES pH 7.5, 50 mM NaCl, 1 mM CHAPS, 1 mM DTT; 30 min; conditions: both partners purified

T2 sequence (Q13342 687-867): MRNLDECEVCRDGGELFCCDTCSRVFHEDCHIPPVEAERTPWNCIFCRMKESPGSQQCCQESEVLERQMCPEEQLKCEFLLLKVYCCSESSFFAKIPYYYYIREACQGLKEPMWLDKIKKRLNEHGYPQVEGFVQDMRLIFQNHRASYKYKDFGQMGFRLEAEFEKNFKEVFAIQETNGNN
T1 sequence (Q13342 687-867): as above

Molecule: Cn1c(-c2ccc(C(=O)Nc3cccc(CCOC(C)(C)C)c3)cc2)nc2cc(C(=O)Nc3cccc(CCOC(C)(C)C)c3)ccc21 [GSK761]
IC50 (SP140): 77.8 ± 8.27 nM

B1: unmodified H3_(1-19) peptide (histone peptide array) (peptide)
peptide: ARTKQTARKSTGGKAPRKQ
notes: histone H3, residues 1-19; numbers count on: the protein without the initiator methionine; Spotted on the array slide; source: bought: Active Motif modified histone peptide array
binding result [1]: binds

B4: H3K4(3Me) (1-10) (peptide)
peptide: ARTK(Me3)QTARKS
notes: histone H3, residues 1-10; numbers count on: the protein without the initiator methionine; source: bought: Anaspec library
IC50 [2]: 12500 nM

More lines, now with the values ahead:

IC50 [2]: 270 nM
B2: biotinylated H3(+YCK) (1-18 +YCK) (peptide)
peptide: ARTKQTARKSTGGKAPRKYCK
modifications: also: biotin, position not given here
notes: histone H3, residues 1-18; numbers count on: the protein without the initiator methionine; added residues, printed as '+YCK' after 1-18; also called H3_(1-18); source: bought: Anaspec library

IC50 [2]: 2830 nM
B3: biotinylated H3 (1-9) (peptide)
peptide: ARTKQTARK
modifications: also: biotin, position not given here
notes: histone H3, residues 1-9; numbers count on: the protein without the initiator methionine; source: bought: Anaspec library
